Results published in patent US20170183645A1.
Where “and” joins values, the source holds several entries; their conditions need not be identical. Equal values may be shown once.

B1: Anti-Flu neuraminidase VHH (clone Flu 27-8) (VHH)
VHH: QVQLVESGGRLVQAGGSLRVACVASGGTFSSYVMGWFRQAPGKERESVASITRDGDTTFYADSVKGRFTIARDNAKNTVYLQMNSLQPEDTGVYYCAAAVQYGTLWSRQYDYWGQGTQVTVSS
B2: humanized VHH h27-8GL (monovalent) (VHH)
VHH: QVQLVESGGGLVQPGGSLRLSCAASGGTFSSYVMGWFRQAPGKGLESVASITRDGDTTFYADSVKGRFTISRDNSKNTLYLQMNSLRAEDTAVYYCAAAVQYGTLWSRQYDYWGQGTLVTVSS
B3: Bivalent homodimer of humanized anti-Flu neuraminidase VHH (clone Flu h27-8GL.h27-8GL) (VHH)
chain: QVQLVESGGGLVQPGGSLRLSCAASGGTFSSYVMGWFRQAPGKGLESVASITRDGDTTFYADSVKGRFTISRDNSKNTLYLQMNSLRAEDTAVYYCAAAVQYGTLWSRQYDYWGQGTLVTVSSAHHSEDPSSKAPKAPMAQVQLVESGGGLVQPGGSLRLSCAASGGTFSSYVMGWFRQAPGKGLESVASITRDGDTTFYADSVKGRFTISRDNSKNTLYLQMNSLRAEDTAVYYCAAAVQYGTLWSRQYDYWGQGTLVTVSS

Tests used:
[1] = molecular target: H3N2 influenza neuraminidase (influenza H3N2 (strain not stated))
[2] = molecular target: influenza H5N1 neuraminidase (H5N1 A/Thailand/1(KAN-1)/2004) (influenza A virus H5N1 A/Thailand/1(KAN-1)/2004)
[3] = molecular target: H1N1 influenza neuraminidase (influenza H1N1 (strain not stated))

Binder	ELISA reactivity compared to control protein (BSA) [1]	ELISA reactivity compared to control protein (BSA) [2]	ELISA reactivity compared to control protein (BSA) [3]
B1	1.08	2.48	1.89
B2	1.34 and 1.09	2.27 and 1.78	1.62 and 1.21
B3	1.67 and 1.13	3.73 and 2.15	2.44 and 1.31
